Values quoted from earlier work in patent publication US20040063697A1, “Compositions of cyclooxygenase-2 selective inhibitors and thrombolytic agents for the treatment or prevention of a vaso-occlusive event” (priority 2002, published 2004).

Experiments:
restenosis = settings: orally administered, stent implanted pig arteries
[1] = for Elimination / Half-Life: in vivo
[2] = for Antigenicity: in vivo; for immune response: when administered to a human
plasminogen = plasminogen (Homo sapiens, UniProt P00747)
minimal lumen diameter = settings: single dose intravenous pretreatment before coronary stenting, at 6 months
[3] = system: vascular smooth muscle cells; settings: in vitro
[4] = system: coronary intimal proliferation; settings: oral administration, swine model of restenosis

Chain of plasminogen (P00747 20-810 limits assumed): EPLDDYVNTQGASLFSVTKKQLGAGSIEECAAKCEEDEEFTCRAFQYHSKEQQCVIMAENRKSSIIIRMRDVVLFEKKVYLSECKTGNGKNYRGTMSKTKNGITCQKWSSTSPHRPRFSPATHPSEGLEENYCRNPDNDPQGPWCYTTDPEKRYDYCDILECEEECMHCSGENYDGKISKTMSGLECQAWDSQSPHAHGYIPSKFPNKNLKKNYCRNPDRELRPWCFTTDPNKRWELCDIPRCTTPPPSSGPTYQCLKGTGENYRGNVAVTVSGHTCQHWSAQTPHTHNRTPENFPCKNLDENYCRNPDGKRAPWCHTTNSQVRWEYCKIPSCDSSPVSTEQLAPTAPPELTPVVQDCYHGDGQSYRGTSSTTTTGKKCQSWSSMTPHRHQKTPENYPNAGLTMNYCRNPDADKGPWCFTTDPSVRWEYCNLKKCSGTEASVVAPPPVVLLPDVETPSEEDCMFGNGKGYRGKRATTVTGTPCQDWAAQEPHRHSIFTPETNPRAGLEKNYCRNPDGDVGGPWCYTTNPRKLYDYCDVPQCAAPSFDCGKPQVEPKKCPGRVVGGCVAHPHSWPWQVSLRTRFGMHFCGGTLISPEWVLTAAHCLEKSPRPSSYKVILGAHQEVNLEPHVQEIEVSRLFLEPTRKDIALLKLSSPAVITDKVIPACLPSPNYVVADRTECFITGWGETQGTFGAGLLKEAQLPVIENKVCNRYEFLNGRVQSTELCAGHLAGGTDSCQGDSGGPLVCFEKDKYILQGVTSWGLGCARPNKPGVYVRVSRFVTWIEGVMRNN

Row | Method of Plasminogen Activation (plasminogen) | Compound | Elimination [1] | Half-Life [1] [min] | Antigenicity [2] | immune response [2] | activation of fibrin-bound plasminogen versus circulating plasminogen (plasminogen) | other results
1 |  | COc1ccc(C=CC(=O)Nc2ccccc2C(=O)O)cc1OC [tranilast, N-(3,4-dimethoxycinnamoyl) anthranilic acid] |  |  |  |  |  | rate of restenosis (restenosis): lower rate of restenosis
2 | Direct | Urokinase | Hepatic | 15 to 20 | No | does not elicit an immune response | activates fibrin-bound plasminogen as well as circulating plasminogen | 
3 |  | C[C@H]1C[C@@H]2[C@H]([C@@H](O)C[C@@]3(C)[C@H]2CC[C@]3(O)C(=O)CO)[C@@]2(C)C=CC(=O)C=C12 [methylpridnisolone] |  |  |  |  |  | change in minimal lumen diameter (minimal lumen diameter): no effect
4 |  | t-PA: tissue plasminogen activators |  |  |  |  | highly specific for the activation of fibrin-bound plasminogen over circulating plasminogen | 
5 |  | COc1cc(/C=C/C(=O)CC(=O)/C=C/c2ccc(O)c(OC)c2)ccc1O [curcumin] |  |  |  |  |  | proliferation of vascular smooth muscle cells [3]: reduced proliferation
6 | Direct | Alteplase: biosynthetic, glycosylated form of human t-PA | Hepatic | 4 to 8 | No | no immune response is elicited |  | plasma clearance time and half-life ([1]; in words): rapid plasma clearance time and a short half-life
7 |  | CN(C)CCCO[C@@H]1[C@H]2OC(C)(C)O[C@H]2O[C@@H]1[C@H](O)CO.Cl [aniprilose hydrochloride] |  |  |  |  |  | coronary intimal proliferation [4]: did not prevent

Row | Compound | Method of Plasminogen Activation (plasminogen) | Elimination [1] | Half-Life [1] [min] | Antigenicity [2] | immune response [2] | activation of fibrin-bound plasminogen versus circulating plasminogen (plasminogen) | other results
8 | Streptokinase: plasminogen activator produced by beta-hemolytic streptococci | Indirect | Hepatic | 15 to 25 | Yes | induce an immune response | activate fibrin-bound plasminogen as well as circulating plasminogen | 
